From patent US20170298146A1 (MODIQUEST B V, published 2017)
Non-standard residues stand in square brackets, D forms with d. No end group written: not given here. Cit = NC(=O)NCCC[C@H](N)C(=O)O

Tests used:
[1] = target: T1, huPAD4 deiminated human recombinant histone H2B (human); test: ELISA, 0.000128 ug/well
T1 construct: also called H2B/p4
Procedure: (§1) CFC-1 and CFC-0 were coated at the same concentration and served as positive and negative controls, respectively, for specific anti-citrulline reactivity and as coating controls. Non-coated wells were used to test for aspecific binding of the antibodies. […] Detection of bound anti-citrulline antibodies was performed by incubating the wells with rabbit-anti-human-HRP (1:2000) for one hour at RT followed by incubation with TMB substrate. The resulting OD (y-axis) is a measure for antibody binding. H1=recombinant histone 1; H1/p2=huPAD2 recombinant histone 1; H1/p4=huPAD4 recombinant histone 1 and so forth (x-axis).

[2] = target: T2, human recombinant histone H4 (human, UniProt P62805 2-103); test: ELISA, 0.000128 ug/well
Procedure: as §1

[3] = target: T3, huPAD2 deiminated human recombinant histone H2A (human); test: ELISA, 0.000128 ug/well
T3 construct: also called H2A/p2
Procedure: as §1

[4] = target: T4, huPAD2 deiminated human recombinant histone H3 (human); test: ELISA, 0.000128 ug/well
T4 construct: also called H3/p2
Procedure: as §1

[5] = target: T5, human recombinant histone H2B (human); test: ELISA, 0.000128 ug/well
T5 construct: Non-deiminated
Procedure: as §1

[6] = target: T6, huPAD2 deiminated human recombinant histone H2B (human); test: ELISA, 0.000128 ug/well
T6 construct: also called H2B/p2
Procedure: as §1

[7] = target: T7, huPAD4 deiminated human recombinant histone H3 (human); test: ELISA, 0.000128 ug/well
T7 construct: also called H3/p4
Procedure: as §1

[8] = target: PREDICTED: similar to 60S ribosomal protein L29 (Cell surface heparin-binding protein HIP) [Homo sapiens] (Homo sapiens); test: IP from huPAD4 deiminated HEK293 lysate, nLC LTQ FTMS, emPAI; against RhmAb2.101
Procedure: Beads were subjected to three washes with 1 ml IPP500, one wash with 1 ml IPP150 (10 mM Tris/HC1 pH 8.0, 150 mM NaCl, 0.1% NP40 and 0.1% TWEEN®-20), and subsequently incubated at room temperature with 300 μl deiminated HEK293 lysate for two hours under constant rotation. Beads were washed three times with 1 ml of IPP150 after which a small part has been used for SDS-PAGE electrophoresis to determine if the IP procedure with the HEK293 cells was successful.
To remove PEGs from the immunoprecipitated proteins, they were loaded on a 15% SDS-PAGE gel and run shortly. […] Samples were diluted 50 fold before subjecting them to nLC LTQ FTMS ULTRA analysis.

[9] = target: T1, huPAD4 deiminated human recombinant …; test: ELISA, 0.00064 ug/well
Procedure: as §1

[10] = target: T2, human recombinant histone H4; test: ELISA, 0.00064 ug/well
Procedure: as §1

[11] = target: T3, huPAD2 deiminated human recombinant …; test: ELISA, 0.00064 ug/well
Procedure: as §1

[12] = target: T8, human recombinant histone H2A (human); test: ELISA, 0.00064 ug/well
T8 construct: Non-deiminated
Procedure: as §1

[13] = target: T5, human recombinant histone H2B; test: ELISA, 0.00064 ug/well
Procedure: as §1

CFC-1 = target: T9, CFC-1; test: ELISA, 0.00064 ug/well
T9 construct: Positive control for anti-citrulline reactivity; also called cfc1 XG
Procedure: as §1

[14] = target: T10, huPAD4 deiminated human recombinant histone H2A (human); test: ELISA, 0.00064 ug/well
T10 construct: also called H2A/p4; huPAD4 deiminated histone 2A
Procedure: as §1

[15] = target: T6, huPAD2 deiminated human recombinant …; test: ELISA, 0.00064 ug/well
Procedure: as §1

msFibβ XG = target: T11, msFibβ XG (mouse, also: biotin label); test: peptide ELISA, 0.000128 ug/well
T11 peptide: EPTDSLDA[Cit]GHRPVDRR
Procedure: (§2) Biotin and citrulline-containing peptides derived from fibrinogen and vimentin were immobilized on NEUTRAVIDIN®-coated 96-well ELISA plates (0.3 μg/well). CFC-1 and CFC-0 were coated at the same concentration and served as positive and negative controls respectively for specific anti-citrulline reactivity and as coating controls. Non-coated wells were used to test for aspecific binding of the antibodies. […] Detection of bound anti-citrulline antibodies was performed by incubating the wells with rabbit-anti-human-HRP (1:2000) for one hour at RT followed by incubation with TMB substrate. The resulting OD (y-axis) is a measure for antibody binding.
(§3) Biotin-labeled and citrulline-containing fibrinogen and vimentin peptides (Table 5) were also tested for reactivity with the therapeutic antibodies. Peptides were coated on 96-well NEUTRAVIDIN®-ELISA plates.

msVim XS/XL = target: T12, msVim XS/XL (mouse, also: biotin label); test: peptide ELISA, 0.000128 ug/well
T12 construct: also called mouse vimentin peptide
T12 peptide: YVT[Cit]SSAV[Cit]L[Cit]SSVP
Procedure: as §2, §3

msFibα XH = target: T13, msFibα XH (mouse, X at position 15 is citrulline; biotin label); test: peptide ELISA, 0.000128 ug/well
T13 peptide: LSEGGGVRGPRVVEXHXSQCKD
Procedure: as §2, §3

huFibα XG = target: T14, huFibα XG (human, X at position 8 is citrulline; biotin label); test: peptide ELISA, 0.000128 ug/well
T14 peptide: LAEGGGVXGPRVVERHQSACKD
Procedure: as §2, §3

[16] = target: T15, Histone 2A citrulline-containing peptide 4 (human, also: biotin label); test: peptide ELISA, 0.08 ug/well
T15 peptide: QFPVG[Cit]VHRLLR
Procedure: as §2, with “histone 2A” for “fibrinogen and vimentin”
(§4) Ninety-six-well ELISA plates were coated with NEUTRAVIDIN® (0.1 μg/well) by overnight incubation at 4° C. Wells were washed five times with PBS-TWEEN®-20 (PBS-T) and blocked by a one-hour incubation with PBS-T+1% Bovine serum albumin (BSA) at room temperature (RT). After five more washes with PBS-T, wells were incubated for one hour at RT with histone-derived citrulline and biotin-containing peptides (0.3 μg/well). […] Wells were washed five times with PBS-T and incubated with rabbit-anti-human-HRP (1:2000) for one hour at RT followed by five washes with PBS-T and three wash steps with PBS. Wells were incubated for five minutes with TMB substrate before stopping the reaction with 2 M H₂SO₄. Optical density was measured by 450 nm and is a measure for the affinity of the antibodies used.

[17] = target: T16, Histone 2A citrulline-containing peptide 8 (human, also: biotin label); test: peptide ELISA, 0.08 ug/well
T16 peptide: AGNAA[Cit]DNKKTR
Procedure: as §2, with “histone 2A” for “fibrinogen and vimentin”
as §4

[18] = target: T17, Histone 2A citrulline-containing peptide 3 (human, also: biotin label); test: peptide ELISA, 0.08 ug/well
T17 peptide: KSRSS[Cit]AGLQFP
Procedure: as §2, with “histone 2A” for “fibrinogen and vimentin”
as §4

B1: RhmAb2.102 (antibody, human IgG1, lambda)
heavy: not shown
light: QSVLTQPPSMSAAPGQKVTISCSGSSSNIGNNYVSWYQQVPGTAPKLLIYDDNKRPSGIPGRFSGSKSATSATLGITGLQAGDEADYYCGSWDDNLSVVLFGGGTKLTVLGQPKAAPSVTLFPPSSEELQANKATLVCLISDFYPGAVTVAWKADSSPVKAGVETTTPSKQSNNKYAASSYLSLTPEQWKSHRSYSCQVTHEGSTVEKTVAPTECS
notes: Human IgG1 lambda; also called Rhm2.102
- OD [1]: 0.053 OD
- OD [2]: 0.06 OD
- OD [3]: 0.063 OD
- OD [4]: 0.066 OD
- OD [5]: 0.052 OD
- OD [6]: 0.051 OD
- OD [7]: 0.06 OD
- Ratio 102/101 [8]: 1
- OD [9]: 0.055 OD
- OD [10]: 0.06 OD
- OD [11]: 0.077 OD
- OD [12]: 0.057 OD
- OD [13]: 0.052 OD
- OD (CFC-1): 0.077 OD
- OD [14]: 0.075 OD
- OD [15]: 0.052 OD
- OD (msFibβ XG): 0.118 OD
- OD (msVim XS/XL): 0.133 OD
- OD (msFibα XH): 0.089 OD
- OD (huFibα XG): 0.115 OD
- OD [16]: 0.192 OD
- OD [17]: 0.06 OD
- OD [18]: 0.091 OD
